Reference: US20220177593A1 (CELLDEX THERAPEUTICS, published 2022)
Numbering of substitutions follows the chain as printed.

Legend:
[1] = target: T1, human Axl expressed on the surface of cells (human, UniProt P30530 26-894); assay: flow cytometry on L cells expressing human Axl
T1 construct: whole, on cells; also called huAxl; Axl on H1299 cells
T1 sequence (looked up): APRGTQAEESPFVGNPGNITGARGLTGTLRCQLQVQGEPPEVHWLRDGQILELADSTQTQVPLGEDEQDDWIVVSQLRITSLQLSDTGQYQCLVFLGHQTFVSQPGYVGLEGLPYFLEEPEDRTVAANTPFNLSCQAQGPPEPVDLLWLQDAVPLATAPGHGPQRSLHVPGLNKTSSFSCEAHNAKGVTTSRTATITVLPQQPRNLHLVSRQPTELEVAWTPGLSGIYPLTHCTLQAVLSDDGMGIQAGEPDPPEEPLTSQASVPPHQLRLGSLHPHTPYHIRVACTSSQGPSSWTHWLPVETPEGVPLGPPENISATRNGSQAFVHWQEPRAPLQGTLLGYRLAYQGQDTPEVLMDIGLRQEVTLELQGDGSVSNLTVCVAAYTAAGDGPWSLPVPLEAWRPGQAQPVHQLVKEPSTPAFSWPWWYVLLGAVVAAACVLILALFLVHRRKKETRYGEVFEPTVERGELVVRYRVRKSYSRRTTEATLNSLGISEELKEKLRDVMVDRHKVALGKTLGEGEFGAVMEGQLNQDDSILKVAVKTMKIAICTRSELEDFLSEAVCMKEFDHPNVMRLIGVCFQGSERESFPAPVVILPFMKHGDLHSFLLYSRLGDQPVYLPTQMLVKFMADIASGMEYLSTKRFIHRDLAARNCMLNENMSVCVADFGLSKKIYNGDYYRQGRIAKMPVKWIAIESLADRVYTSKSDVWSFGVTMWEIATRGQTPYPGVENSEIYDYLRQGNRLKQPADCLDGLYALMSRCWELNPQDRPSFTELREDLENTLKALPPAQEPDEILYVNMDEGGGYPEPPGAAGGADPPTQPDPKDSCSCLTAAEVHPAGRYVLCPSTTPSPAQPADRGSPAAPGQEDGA
Experimental: (§1) The ability of anti-Axl human antibodies to bind to Axl on cells expressing human Axl on their surface was investigated by flow cytometry as follows: Purified antibodies were incubated with either L cells expressing human Axl on their surface or H1299 cells at room temperature on a plate shaker. After 20 minutes, the cells were washed with PBS containing 0.1% BSA and 0.05% NaN₃ (PBA), and the bound antibodies were detected by incubating the cells with a phycoerythrin (PE)-labeled goat anti-human IgG Fc-specific probe. The excess probe was washed from the cells with PBA and the cell-associated fluorescence was determined by analysis using a FACSCanto II™ instrument (BD Biosciences, NJ, USA) according to the manufacturer's directions.

[2] = target: T2, purified extracellular domain of human MerTK (human, UniProt Q12866 21-505); assay: ELISA, plates coated with 100 ng purified extracellular domain, titration of Ab301
T2 construct: extracellular domain; also called human MerTK-ECD
T2 sequence (looked up): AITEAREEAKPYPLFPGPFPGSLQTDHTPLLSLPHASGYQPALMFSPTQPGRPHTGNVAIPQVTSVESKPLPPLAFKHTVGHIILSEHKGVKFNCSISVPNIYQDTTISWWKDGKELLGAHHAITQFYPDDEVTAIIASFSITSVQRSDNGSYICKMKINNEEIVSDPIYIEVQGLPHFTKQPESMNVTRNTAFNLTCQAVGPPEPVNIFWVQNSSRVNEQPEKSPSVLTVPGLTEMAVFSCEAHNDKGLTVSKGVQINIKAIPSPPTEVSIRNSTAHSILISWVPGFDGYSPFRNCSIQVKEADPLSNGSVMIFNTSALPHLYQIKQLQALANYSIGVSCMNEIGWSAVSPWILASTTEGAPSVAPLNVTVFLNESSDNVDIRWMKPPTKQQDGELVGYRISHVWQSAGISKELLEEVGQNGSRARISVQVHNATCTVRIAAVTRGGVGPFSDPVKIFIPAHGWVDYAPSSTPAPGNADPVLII
Experimental: Binding of Ab301 to human Axl extracellular domain and its lack of binding to human MerTK extracellular domain was determined using the following protocol: Nunc MaxiSorb™ plates (Thermo Fisher Scientific) were coated with 100 ng of the purified extracellular domain of human Axl or human MerTK in […] borate buffer, overnight at 4° C. Plates were washed and blocked for 1 hour at room temperature with Tris-buffered saline (TBS) with 1% BSA. A titration of Ab301 was added to the coated plates for 1 hour at room temperature, followed by washing and incubation with an HRP-conjugated goat anti-human antibody (Jackson Immunoresearch) for 1 hour at room temperature. Washed plates were incubated with 3,3′,5,5′-Tetramethylbenzidine (TMB) substrate (Thermo Fisher Scientific) and read using a Biotek® plate reader. Data are plotted as the optical density at 450 nm (Abs450) as a function of the log-transformed molar concentration of Ab301, and fit to a 4-parameter binding curve using GraphPad Prism™.

[3] = target: T3, recombinant human Axl-msFc (human, UniProt P30530 26-449, limits assumed); assay: ELISA, plates coated with recombinant human Axl-msFc
T3 construct: also called soluble human Axl-msFc; huAxl; not shown: mouse Fc (msFc)
T3 sequence (looked up): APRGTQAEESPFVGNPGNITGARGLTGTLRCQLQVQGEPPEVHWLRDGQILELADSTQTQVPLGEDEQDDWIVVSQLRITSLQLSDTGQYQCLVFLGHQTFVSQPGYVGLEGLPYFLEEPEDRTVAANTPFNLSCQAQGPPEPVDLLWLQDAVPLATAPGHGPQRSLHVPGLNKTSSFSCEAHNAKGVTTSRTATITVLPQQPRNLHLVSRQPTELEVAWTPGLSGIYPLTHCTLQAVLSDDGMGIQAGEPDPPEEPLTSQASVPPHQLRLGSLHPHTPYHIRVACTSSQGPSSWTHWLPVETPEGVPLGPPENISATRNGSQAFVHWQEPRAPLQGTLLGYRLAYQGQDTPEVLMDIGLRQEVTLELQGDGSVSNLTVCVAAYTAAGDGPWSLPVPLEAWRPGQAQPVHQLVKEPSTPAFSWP
Experimental: Binding of Ab301 and four humanized antibody subclones to human Axl was determined by ELISA using the following protocol: Microtiter plates were coated with recombinant human Axl-msFc, in phosphate-buffered saline (PBS), and then blocked with 5% bovine serum albumin (BSA) in PBS. Protein A purified human monoclonal antibodies and an isotype control were added at various concentrations and incubated at 37° C. The plates were washed with PBS/Tween and then incubated with a goat-anti-human IgG Fc-specific polyclonal reagent conjugated to horseradish peroxidase (HRP) at 37° C. After washing, the plates were developed with HRP substrate, and analyzed at OD 450-650 using a microtiter plate reader.

[4] = target: T4, purified extracellular domain of human Axl (human, UniProt P30530 26-451); assay: ELISA on purified Axl domains coated on plates, Ab301 at 5 ug/mL
T4 construct: extracellular domain; also called human Axl-ECD; Axl-ECD
T4 sequence (looked up): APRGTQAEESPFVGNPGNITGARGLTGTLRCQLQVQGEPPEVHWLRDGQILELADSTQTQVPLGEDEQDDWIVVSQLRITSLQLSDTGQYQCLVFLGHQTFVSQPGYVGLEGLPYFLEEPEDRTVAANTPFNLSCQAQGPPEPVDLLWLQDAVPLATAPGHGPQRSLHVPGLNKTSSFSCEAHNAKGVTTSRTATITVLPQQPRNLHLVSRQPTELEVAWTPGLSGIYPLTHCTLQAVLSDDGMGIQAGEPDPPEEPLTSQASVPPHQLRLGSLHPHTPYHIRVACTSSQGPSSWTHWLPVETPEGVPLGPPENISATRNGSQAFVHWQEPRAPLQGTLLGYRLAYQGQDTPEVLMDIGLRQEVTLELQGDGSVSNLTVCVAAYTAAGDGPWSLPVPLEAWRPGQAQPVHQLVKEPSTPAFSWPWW
Experimental: (§2) Human Axl domains (D1-D4) of the Axl extracellular domain (Axl-ECD) were expressed in Exi293 cells, purified by nickel affinity chromatography and buffer exchanged to PBS. […] Ab301 was added at 5 μg/mL for 1 hour at room temperature, washed, and subsequently incubated with an HRP- conjugated goat anti-human antibody (Jackson Immunoresearch). Plates were washed and incubated with TMB (Pierce Biotechnology).

[5] = target: T5, Domain 1 (Ig-like domain 1) of the human Axl extracellular domain (human, UniProt P30530 34-137); assay: as above
T5 construct: The tag is not described; also called D1; Domain 1 of the Axl-ECD alone
Experimental: as §2

[6] = target: T1, human Axl expressed on the surface of …; assay: flow cytometry on H1299 cells
Experimental: as §1

B1: Ab301 (antibody, human IgG1, V domains shown)
VH: EVKLEASGGGLVQPGMSVKLSCTTSGFTFSDYWMEWVRQAPGKGLEWVAEIRNKVNNYATYYGKSVKGRFTISRDDSKSIVYLQMNSIRSEDTGIYYCNTLRLFAYWGQGTLVTVSA
VL: DIVMTQAPLSISVTPGESPSMSCRSSKSLLHRNGITYVYWYLQKPGKSPQLLIYRMSTLASGVPDRFSGSGSETDFTLKINKVEAEDVGIYYCGQLLENPYTFGAGTRLEIK
notes: also called anti-Axl antibody Ab301
B1: binds [1]; no binding [2]; binds [3]. B1: binds [4]; binds [5].

B2: Ab302 (antibody, V domains shown)
VH: EVQLVESGGGLVKPGGSLKLSCAASGFTFSDYWMEWVRQAPGKGLEWVAEIRNKVNNYATYYGKSVKGRFTISRDDSKNTLYLQMNSLKTEDTAVYYCNTLRLFAYWGQGTLVTVSS
VL: DIQMTQSPSSLSASVGDRVTITCRSSKSLLHRQGITYVYWYQQKPGKVPKLLIYRMSTLASGVPSRFSGSGSGTDFTLTISSLQPEDVATYYCGQLLENPYTFGQGTKLEIK
notes: Humanized
B2: binds [6]; binds [3].

B3: Ab304 (antibody, V domains shown)
VH: B2 VH with K13Q, K19R, A49G, D76E, T80S, L112T
VL: B2 VL
notes: Humanized
B3: binds [6]; binds [3].

B4: Ab305 (antibody, V domains shown)
VH: B2 VH with K13Q, G16R, K19R, A23T, A49G, N79S, T80I, L81A, S117A
VL: B2 VL
notes: Humanized
B4: binds [6]; binds [3].

B5: Ab303 (antibody, V domains shown)
VH: B2 VH with L11V, K13Q, G16R, K19R, D76N, K89R, T90A
VL: B2 VL
notes: Humanized
B5: binds [6]; binds [3].
